“And” between values parts separate entries of the source, which are not always exact repeats. Identical values can stand only once. Blank lines part the entries; values can stand above or below the molecule they belong to.
Columns and labels:
[1] = target: human CCR8 on CHO cells stably expressing human CCR8 (CHO.hCCR8) (human) (UniProt P51685); assay: real-time cell binding (LigandTracer); hCCL1^AF647 added at 0.5, 10 and 50 nM in sequence to CHO.hCCR8 cells at room temperature, then dissociation in medium; signal of CHO wild-type cells subtracted; one-to-two step model
human CCR8 on CHO cells stably expressing human CCR8 (CHO.hCCR8) (human), sequence (P51685 whole entry): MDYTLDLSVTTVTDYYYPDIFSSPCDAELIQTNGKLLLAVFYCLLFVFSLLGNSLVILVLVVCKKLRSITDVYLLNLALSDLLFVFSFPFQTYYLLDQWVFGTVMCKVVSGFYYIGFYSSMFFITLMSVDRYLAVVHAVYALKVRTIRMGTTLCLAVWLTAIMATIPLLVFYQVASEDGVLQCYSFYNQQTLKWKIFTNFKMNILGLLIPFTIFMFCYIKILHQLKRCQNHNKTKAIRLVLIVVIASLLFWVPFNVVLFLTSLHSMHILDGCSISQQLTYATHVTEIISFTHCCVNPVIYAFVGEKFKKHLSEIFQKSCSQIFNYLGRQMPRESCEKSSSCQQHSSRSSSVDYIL

[2] = target: T1, human CCR8 on CHO cells stably expressing human CCR8 (CHO.hCCR8) (Homo sapiens, UniProt P51685); assay: cell-based or functional assay
T1 sequence (P51685 whole entry): as above

[3] = target: T1, human CCR8 on CHO cells stably …; assay: radioligand binding; unlabeled mAb1 (from 50 nM, 1:3 dilutions) against a fixed concentration of 125I-mAb1 on CHO.CCR8 cells, room temperature, 18 h; heterologous one site-fit Ki competitive binding model; three independent experiments, not averaged; conditions: one partner purified

KD of the high affinity binding event (slow on, slow off) [1]: 0.7 nM
KD of the low affinity binding event (fast on, fast off) [1]: 15 nM
Kd [1]: 1 nM
Molecule: AlexaFluor647-labeled human CCL1 (hCCL1^AF647) (from UniProt P22362 24-96) (ligand)

Ca^2+ influx (FLIPR) in CHO.hCCR8 cells: inhibition of the signal induced by a sub-maximal (EC80) concentration of CCL1 (blocks CCL1-CCR8); apparent IC50 [2]: 57.9 nM
Kd [3]: 0.0284 nM
Ki [3]: 0.0414 nM and 0.0555 nM
B1: anti-human CCR8 antibody mAb1 (IgG) (antibody, V domains shown)
VH: QSVEESGGRLVTPGTPLTLTCTVSGFSLSNYAMIWVRQAPGEGLEWVGTISLGGYTYYANWAKGRFTISKTSTTVDLKISSPTTEDTATYFCARARWSTDSAIYTYAFDPWGPGTLVTVSS
VL: AYDMTQTPASVEVAVGGTVTIKCQASQSISSYLSWYQQKPGQRPELLIYKASTLASGVSSRFKGSGSGTQFTLTISDLEAADAATYYCQQGYTSSNIDNIFGGGTEVVVK
notes: variable region and CH1 as the heavy chain of Fab1, deposited in PDB 8TLM; as the light chain of Fab1, deposited in PDB 8TLM; Raised in rabbits; a humanized version was also made; the IgG was detected with anti-human IgG (Fc) secondaries; In the radioligand assay the tracer was 125I-labelled mAb1 (random tyrosines); also called anti-hCCR8 mAb1; anti-CCR8 mAb1
